Data published in patent US20230357362A1.
Blank lines part the entries; values can stand above or below the substance they belong to.

Legend:
[1] = target: 40S ribosomal protein S3 OS = Homo sapiens GN = RPS3 (Homo sapiens) (UniProt P23396); assay: co-IP with M53 from SW480 lysate, LC-MS
[2] = target: Histone H4 OS = Homo sapiens GN = HIST1H4A PE = 1 (Homo sapiens) (UniProt P62805); assay: co-IP with M53 from SW480 lysate, LC-MS
[3] = target: Tubulin beta-4B chain OS = Homo sapiens GN = TUBB4B (Homo sapiens) (UniProt P68371); assay: co-IP with M53 from SW480 lysate, LC-MS
[4] = target: ATP synthase subunit beta, mitochondrial OS = Homo (name cut off as printed) (Homo sapiens) (UniProt P06576); assay: co-IP with M53 from SW480 lysate, LC-MS
[5] = target: Isoform 2 of Plectin OS = Homo sapiens GN = PLEC (Homo sapiens) (UniProt Q15149); assay: co-IP with M53 from SW480 lysate, LC-MS
Sequence of Isoform 2 of Plectin OS = Homo sapiens GN = PLEC (Homo sapiens) (Q15149 other isoform, or with tags, fused parts or gaps limits assumed): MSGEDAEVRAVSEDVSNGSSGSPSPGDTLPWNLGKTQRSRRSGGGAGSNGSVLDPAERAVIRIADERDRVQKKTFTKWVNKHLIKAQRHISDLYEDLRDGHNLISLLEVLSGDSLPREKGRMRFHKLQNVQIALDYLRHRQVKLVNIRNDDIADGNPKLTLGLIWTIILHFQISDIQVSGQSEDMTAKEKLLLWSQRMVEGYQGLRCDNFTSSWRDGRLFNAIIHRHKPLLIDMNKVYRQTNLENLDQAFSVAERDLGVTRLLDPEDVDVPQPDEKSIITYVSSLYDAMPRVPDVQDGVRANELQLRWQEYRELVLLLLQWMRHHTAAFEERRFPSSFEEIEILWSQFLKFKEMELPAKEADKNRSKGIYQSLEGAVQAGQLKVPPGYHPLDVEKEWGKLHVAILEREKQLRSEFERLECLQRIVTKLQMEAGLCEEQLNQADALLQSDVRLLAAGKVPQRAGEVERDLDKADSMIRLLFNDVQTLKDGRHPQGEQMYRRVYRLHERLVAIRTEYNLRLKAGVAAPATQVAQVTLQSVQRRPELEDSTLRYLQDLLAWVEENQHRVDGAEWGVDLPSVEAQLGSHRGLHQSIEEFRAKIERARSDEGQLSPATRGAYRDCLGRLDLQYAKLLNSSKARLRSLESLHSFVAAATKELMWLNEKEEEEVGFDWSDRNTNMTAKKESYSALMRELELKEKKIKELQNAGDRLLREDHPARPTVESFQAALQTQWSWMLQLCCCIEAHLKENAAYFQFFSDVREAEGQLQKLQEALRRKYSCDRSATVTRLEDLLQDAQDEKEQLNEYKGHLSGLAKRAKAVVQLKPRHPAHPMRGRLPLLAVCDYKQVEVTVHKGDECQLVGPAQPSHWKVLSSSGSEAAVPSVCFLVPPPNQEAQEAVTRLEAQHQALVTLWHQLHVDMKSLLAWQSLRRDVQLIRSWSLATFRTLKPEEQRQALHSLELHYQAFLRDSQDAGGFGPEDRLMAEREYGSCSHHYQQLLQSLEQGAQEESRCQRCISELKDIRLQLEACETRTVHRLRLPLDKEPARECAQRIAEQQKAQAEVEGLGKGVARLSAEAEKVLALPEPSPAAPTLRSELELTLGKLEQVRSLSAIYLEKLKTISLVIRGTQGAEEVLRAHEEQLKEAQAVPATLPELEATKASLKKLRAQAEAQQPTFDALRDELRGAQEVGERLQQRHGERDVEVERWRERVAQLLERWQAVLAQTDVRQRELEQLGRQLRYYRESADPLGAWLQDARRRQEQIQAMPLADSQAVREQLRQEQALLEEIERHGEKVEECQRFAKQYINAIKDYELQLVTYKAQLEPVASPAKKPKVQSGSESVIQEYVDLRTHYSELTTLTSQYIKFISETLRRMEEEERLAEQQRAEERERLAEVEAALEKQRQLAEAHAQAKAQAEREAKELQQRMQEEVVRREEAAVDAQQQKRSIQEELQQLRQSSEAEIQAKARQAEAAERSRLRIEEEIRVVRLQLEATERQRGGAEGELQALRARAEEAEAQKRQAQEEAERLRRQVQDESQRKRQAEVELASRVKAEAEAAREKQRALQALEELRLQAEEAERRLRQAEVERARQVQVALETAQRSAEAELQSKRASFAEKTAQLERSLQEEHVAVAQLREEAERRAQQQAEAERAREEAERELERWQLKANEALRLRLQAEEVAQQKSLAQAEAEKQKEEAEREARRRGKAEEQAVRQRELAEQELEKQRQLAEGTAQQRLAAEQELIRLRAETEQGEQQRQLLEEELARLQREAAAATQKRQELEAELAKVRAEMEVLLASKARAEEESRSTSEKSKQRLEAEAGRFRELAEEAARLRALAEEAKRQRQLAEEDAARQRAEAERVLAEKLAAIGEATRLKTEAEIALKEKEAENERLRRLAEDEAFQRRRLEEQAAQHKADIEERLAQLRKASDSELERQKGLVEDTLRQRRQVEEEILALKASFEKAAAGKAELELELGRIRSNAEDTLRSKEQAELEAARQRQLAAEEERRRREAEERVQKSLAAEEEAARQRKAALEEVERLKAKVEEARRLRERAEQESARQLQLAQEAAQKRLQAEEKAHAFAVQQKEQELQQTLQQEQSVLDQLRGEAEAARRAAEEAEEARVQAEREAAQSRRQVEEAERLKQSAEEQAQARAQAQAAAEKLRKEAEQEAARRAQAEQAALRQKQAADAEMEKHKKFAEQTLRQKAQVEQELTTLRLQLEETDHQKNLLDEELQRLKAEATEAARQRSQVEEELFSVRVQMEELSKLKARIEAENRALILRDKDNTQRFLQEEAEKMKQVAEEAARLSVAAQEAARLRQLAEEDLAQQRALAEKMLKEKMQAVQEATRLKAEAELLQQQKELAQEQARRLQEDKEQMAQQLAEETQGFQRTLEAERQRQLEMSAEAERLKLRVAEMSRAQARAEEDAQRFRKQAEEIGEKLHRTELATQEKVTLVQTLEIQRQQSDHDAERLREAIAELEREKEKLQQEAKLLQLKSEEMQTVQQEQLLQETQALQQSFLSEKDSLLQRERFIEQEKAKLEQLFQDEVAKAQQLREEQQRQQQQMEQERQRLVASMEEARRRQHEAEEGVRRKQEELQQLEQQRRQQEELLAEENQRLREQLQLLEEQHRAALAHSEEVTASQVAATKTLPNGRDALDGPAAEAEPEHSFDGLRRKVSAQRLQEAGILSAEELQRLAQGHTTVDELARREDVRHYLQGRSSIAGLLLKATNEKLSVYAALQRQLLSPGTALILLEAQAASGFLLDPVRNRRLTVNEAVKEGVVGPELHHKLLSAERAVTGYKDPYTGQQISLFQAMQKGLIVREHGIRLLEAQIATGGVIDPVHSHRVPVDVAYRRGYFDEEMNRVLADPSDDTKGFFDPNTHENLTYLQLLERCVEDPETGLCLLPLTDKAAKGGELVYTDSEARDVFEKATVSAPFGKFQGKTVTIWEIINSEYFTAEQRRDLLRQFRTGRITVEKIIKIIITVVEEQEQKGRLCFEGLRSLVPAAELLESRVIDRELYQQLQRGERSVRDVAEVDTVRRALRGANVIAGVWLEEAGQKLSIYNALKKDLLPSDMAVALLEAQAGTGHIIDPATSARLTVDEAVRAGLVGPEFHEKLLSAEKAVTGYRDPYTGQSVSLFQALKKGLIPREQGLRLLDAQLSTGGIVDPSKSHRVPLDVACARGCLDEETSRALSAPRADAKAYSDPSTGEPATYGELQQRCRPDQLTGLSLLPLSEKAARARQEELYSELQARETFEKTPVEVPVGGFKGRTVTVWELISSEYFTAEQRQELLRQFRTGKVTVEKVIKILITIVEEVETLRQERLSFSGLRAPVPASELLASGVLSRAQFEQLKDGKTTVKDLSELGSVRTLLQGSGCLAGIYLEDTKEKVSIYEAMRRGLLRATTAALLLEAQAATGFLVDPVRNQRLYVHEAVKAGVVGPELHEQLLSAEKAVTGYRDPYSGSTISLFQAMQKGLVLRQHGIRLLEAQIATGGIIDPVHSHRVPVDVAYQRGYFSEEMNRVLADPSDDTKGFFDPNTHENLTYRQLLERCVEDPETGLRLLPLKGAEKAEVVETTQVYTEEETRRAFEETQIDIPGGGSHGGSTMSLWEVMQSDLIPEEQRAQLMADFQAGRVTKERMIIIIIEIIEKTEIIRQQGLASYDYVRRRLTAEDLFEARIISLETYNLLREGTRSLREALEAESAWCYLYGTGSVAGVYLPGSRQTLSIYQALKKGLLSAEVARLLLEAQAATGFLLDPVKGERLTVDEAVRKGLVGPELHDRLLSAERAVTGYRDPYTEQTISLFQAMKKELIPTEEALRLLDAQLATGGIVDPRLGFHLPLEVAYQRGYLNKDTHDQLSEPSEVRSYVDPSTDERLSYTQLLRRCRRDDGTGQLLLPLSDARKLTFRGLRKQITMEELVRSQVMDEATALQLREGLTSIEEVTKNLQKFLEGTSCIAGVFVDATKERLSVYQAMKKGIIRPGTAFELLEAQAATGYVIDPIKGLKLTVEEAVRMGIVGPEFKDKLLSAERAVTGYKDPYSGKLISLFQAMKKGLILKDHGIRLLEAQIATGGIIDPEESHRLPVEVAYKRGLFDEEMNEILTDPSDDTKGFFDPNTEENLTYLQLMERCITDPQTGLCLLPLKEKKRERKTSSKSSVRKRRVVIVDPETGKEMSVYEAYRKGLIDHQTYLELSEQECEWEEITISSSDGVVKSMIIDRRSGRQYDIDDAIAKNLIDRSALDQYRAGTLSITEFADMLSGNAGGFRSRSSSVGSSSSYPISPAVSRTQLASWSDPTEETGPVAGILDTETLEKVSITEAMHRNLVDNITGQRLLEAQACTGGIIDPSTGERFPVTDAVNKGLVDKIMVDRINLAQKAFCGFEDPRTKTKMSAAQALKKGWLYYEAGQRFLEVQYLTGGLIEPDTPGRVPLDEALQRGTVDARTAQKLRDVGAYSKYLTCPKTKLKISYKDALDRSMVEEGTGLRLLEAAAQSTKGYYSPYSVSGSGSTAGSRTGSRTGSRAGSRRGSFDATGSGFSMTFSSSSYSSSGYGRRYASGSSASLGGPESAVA

[6] = target: Cytoplasmic dynein 1 heavy chain 1 OS = Homo sapiens (Homo sapiens) (UniProt Q14204); assay: co-IP with M53 from SW480 lysate, LC-MS
[7] = target: Heat shock protein HSP 90-alpha OS = Homo sapiens (Homo sapiens) (UniProt P07900); assay: co-IP with M53 from SW480 lysate, LC-MS
[8] = target: Isoform 2 of Annexin A2 OS = Homo sapiens GN = ANXA2 (Homo sapiens) (UniProt P07355); assay: co-IP with M53 from SW480 lysate, LC-MS
[9] = target: Junction plakoglobin OS = Homo sapiens GN = JUP PE = 1 (Homo sapiens) (UniProt P14923); assay: co-IP with M53 from SW480 lysate, LC-MS
[10] = target: 40S ribosomal protein S15a OS = Homo sapiens (Homo sapiens) (UniProt P62244); assay: co-IP with M53 from SW480 lysate, LC-MS
[11] = target: ADP/ATP translocase 3 OS = Homo sapiens GN = SLC25A6 (Homo sapiens) (UniProt P12236); assay: co-IP with M53 from SW480 lysate, LC-MS
[12] = target: Isoform 2 of 40S ribosomal protein S20 OS = Homo (name cut off as printed) (Homo sapiens) (UniProt P60866); assay: co-IP with M53 from SW480 lysate, LC-MS
[13] = target: Heat shock cognate 71 kDa protein OS = Homo sapiens (Homo sapiens) (UniProt P11142); assay: co-IP with M53 from SW480 lysate, LC-MS
[14] = target: DNA-dependent protein kinase catalytic subunit (UniProt P78527); assay: co-IP with M53 from SW480 lysate, LC-MS
[15] = target: Isoform 2 of Glyceraldehyde-3-phosphate (name cut off as printed) (UniProt P04406); assay: co-IP with M53 from SW480 lysate, LC-MS
[16] = target: Isoform 2 of ATP synthase subunit alpha, mitochondrial (UniProt P25705); assay: co-IP with M53 from SW480 lysate, LC-MS
[17] = target: Desmoplakin OS = Homo sapiens GN = DSP PE = 1 SV = 3 (Homo sapiens) (UniProt P15924); assay: co-IP with M53 from SW480 lysate, LC-MS
[18] = target: Tubulin beta chain OS = Homo sapiens GN = TUBB PE = 1 (Homo sapiens) (UniProt P07437); assay: co-IP with M53 from SW480 lysate, LC-MS
Sequence of Tubulin beta chain OS = Homo sapiens GN = TUBB PE = 1 (Homo sapiens) (P07437 whole entry): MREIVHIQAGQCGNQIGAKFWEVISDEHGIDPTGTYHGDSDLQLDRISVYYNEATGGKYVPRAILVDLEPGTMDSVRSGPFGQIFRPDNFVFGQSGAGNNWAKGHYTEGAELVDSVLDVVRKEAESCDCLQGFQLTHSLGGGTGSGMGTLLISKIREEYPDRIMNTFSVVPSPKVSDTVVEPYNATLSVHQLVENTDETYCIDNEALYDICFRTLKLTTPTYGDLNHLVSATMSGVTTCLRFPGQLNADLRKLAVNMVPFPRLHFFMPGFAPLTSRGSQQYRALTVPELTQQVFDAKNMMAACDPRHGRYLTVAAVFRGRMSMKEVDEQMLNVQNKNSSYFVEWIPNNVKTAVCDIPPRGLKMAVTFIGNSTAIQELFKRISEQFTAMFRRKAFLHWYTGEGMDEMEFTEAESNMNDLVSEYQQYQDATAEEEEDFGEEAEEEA

[19] = target: Heat shock protein beta-1 OS = Homo sapiens (Homo sapiens) (UniProt P04792); assay: co-IP with M53 from SW480 lysate, LC-MS
[20] = target: Myosin-9 OS = Homo sapiens GN = MYH9 PE = 1 SV = 4 (Homo sapiens) (UniProt P35579); assay: co-IP with M53 from SW480 lysate, LC-MS
[21] = target: 40S ribosomal protein S3 OS = Homo sapiens GN = RPS3 (Homo sapiens) (UniProt P23396); assay: IP with isotype IgG control from SW480 lysate, LC-MS (negative control)
[22] = target: Histone H4 OS = Homo sapiens GN = HIST1H4A PE = 1 (Homo sapiens) (UniProt P62805); assay: as above
[23] = target: Tubulin beta-4B chain OS = Homo sapiens GN = TUBB4B (Homo sapiens) (UniProt P68371); assay: as above
[24] = target: ATP synthase subunit beta, mitochondrial OS = Homo (name cut off as printed) (Homo sapiens) (UniProt P06576); assay: as above
[25] = target: Isoform 2 of Plectin OS = Homo sapiens GN = PLEC (Homo sapiens) (UniProt Q15149); assay: as above
[26] = target: Cytoplasmic dynein 1 heavy chain 1 OS = Homo sapiens (Homo sapiens) (UniProt Q14204); assay: as above
[27] = target: Heat shock protein HSP 90-alpha OS = Homo sapiens (Homo sapiens) (UniProt P07900); assay: as above
[28] = target: Isoform 2 of Annexin A2 OS = Homo sapiens GN = ANXA2 (Homo sapiens) (UniProt P07355); assay: as above
[29] = target: Junction plakoglobin OS = Homo sapiens GN = JUP PE = 1 (Homo sapiens) (UniProt P14923); assay: as above
[30] = target: 40S ribosomal protein S15a OS = Homo sapiens (Homo sapiens) (UniProt P62244); assay: as above
[31] = target: ADP/ATP translocase 3 OS = Homo sapiens GN = SLC25A6 (Homo sapiens) (UniProt P12236); assay: as above
[32] = target: endogenous fibronectin of human CRC cells (Isoform 10 of Fibronectin OS = Homo sapiens GN = FN1) (Homo sapiens) (UniProt P02751); assay: as above
[33] = target: Isoform 2 of 40S ribosomal protein S20 OS = Homo (name cut off as printed) (Homo sapiens) (UniProt P60866); assay: as above
[34] = target: Heat shock cognate 71 kDa protein OS = Homo sapiens (Homo sapiens) (UniProt P11142); assay: as above
[35] = target: DNA-dependent protein kinase catalytic subunit (UniProt P78527); assay: as above
[36] = target: Isoform 2 of Glyceraldehyde-3-phosphate (name cut off as printed) (UniProt P04406); assay: as above
[37] = target: Isoform 2 of ATP synthase subunit alpha, mitochondrial (UniProt P25705); assay: as above
[38] = target: Desmoplakin OS = Homo sapiens GN = DSP PE = 1 SV = 3 (Homo sapiens) (UniProt P15924); assay: as above
[39] = target: Tubulin beta chain OS = Homo sapiens GN = TUBB PE = 1 (Homo sapiens) (UniProt P07437); assay: as above
[40] = target: Heat shock protein beta-1 OS = Homo sapiens (Homo sapiens) (UniProt P04792); assay: as above
[41] = target: Myosin-9 OS = Homo sapiens GN = MYH9 PE = 1 SV = 4 (Homo sapiens) (UniProt P35579); assay: as above

Sequence of dysadherin (FXYD5) as expressed in human CRC cells (endogenous in SW480 cells; overexpressed in HCT116 cells) (Q96DB9 22-178): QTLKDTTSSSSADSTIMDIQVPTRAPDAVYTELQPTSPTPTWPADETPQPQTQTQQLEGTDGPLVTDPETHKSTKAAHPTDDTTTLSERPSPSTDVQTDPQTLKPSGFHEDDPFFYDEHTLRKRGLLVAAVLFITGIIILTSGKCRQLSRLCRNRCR

Probe identification probability [1]: 100% | Probe identification probability [2]: 100% | Probe identification probability [3]: 100% | Probe identification probability [4]: 100% | Probe identification probability [5]: 100% | Probe identification probability [6]: 100% | Probe identification probability [7]: 100% | Probe identification probability [8]: 100% | Probe identification probability [9]: 100% | Probe identification probability [10]: 100% | Probe identification probability [11]: 100% | Probe identification probability [12]: 100% | Probe identification probability [13]: 100% | Probe identification probability [14]: 100% | Probe identification probability [15]: 100% | Probe identification probability [16]: 100% | Probe identification probability [17]: 100% | Probe identification probability [18]: 100% | Probe identification probability [19]: 100% | Probe identification probability [20]: 100%
Substance: dysadherin (FXYD5) as expressed in human CRC cells (endogenous in SW480 cells; overexpressed in HCT116 cells) (from UniProt Q96DB9 22-178)

Probe identification probability [21]: 100% | Probe identification probability [22]: 100% | Probe identification probability [23]: 100% | Probe identification probability [24]: 100% | Probe identification probability [25]: 15% | Probe identification probability [26]: 10% | Probe identification probability [27]: 100% | Probe identification probability [28]: 100% | Probe identification probability [29]: 98% | Probe identification probability [30]: 75% | Probe identification probability [31]: 100% | Probe identification probability [32]: 6% | Probe identification probability [33]: 100% | Probe identification probability [34]: 100% | Probe identification probability [35]: 72% | Probe identification probability [36]: 99% | Probe identification probability [37]: 100% | Probe identification probability [38]: 91% | Probe identification probability [39]: 100% | Probe identification probability [40]: 100% | Probe identification probability [41]: 13%
Substance: isotype IgG control antibody
